Measurements as given in the supplement of paper PMC12855868.

B1: library; numbered along this chain (parent)
chain: MAAAGGARLLRAASAVLGGPAGRWLHHAGSRAGSSGLLRNRGPGGSAEASRSLSVSARARSSSEDKITVHFINRDGETLTTKGKVGDSLLDVVVENNLDIDGFGACEGTLACSTCHLIFEDHIYEKLDAITDEENDMLDLAYGLTDRSRLGCQICLTKSMDNMTVRVPETVADARQSIDVGKTS

Variants of: B1
Assay: scaled log2 fold change in cell abundance, elesclomol vs control (0 = silent mean, 1 = nonsense mean) (scaled log2 ratio); higher = higher viability under elesclomol (loss of FDX1 cuproptosis function)
Conditions: glucose 10 mM
[1] = with ABC1 FDX1 KO, elesclomol 5 nM, 14 days
[2] = with HEK293T FDX1 KO, elesclomol 40 nM, 11 days
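Also: variant abundance is its share of total variant reads in each endpoint sample, from next-generation sequencing of the integrated ORF PCR-amplified out of genomic DNA.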

Variant	scaled log2 fold change [1]	scaled log2 fold change [2]
I154L	0.117	0.0996
I154K	0.995	0.727
I154V	-0.0239	-1.6
T157F	0.0938	0.986
T157V	-0.108	-0.969
T157S	0.365	0.742
T157I	-0.909	-0.784
T157A	0.304	0.871
T157K	0.0573	-0.19
T157G	-0.366	0.895
T157D	0.102	-0.275
T157M	0.046	0.00875
T157C	0.0208	0.206
T157Q	0.0955	1.04
T157P	0.927	0.296
T157Y	0.175	-0.241
T157H	-0.268	-0.000268
T157L	-0.0209	-0.588
T157N	-0.181	–
T157E	0.0855	-0.0584

Variant	scaled log2 fold change [1]	scaled log2 fold change [2]
T157R	0.294	0.0556
L156G	0.709	0.904
L156M	-0.318	-0.383
L156K	1.05	1.71
L156C	0.353	0.332
L156S	0.388	0.852
L156A	0.194	-1
L156F	0.599	-0.036
L156W	1.06	1.36
L156D	1.12	0.926
L156V	-0.38	0.664
L156N	0.8	0.347
L156Q	0.697	0.562
L156E	1.11	1.53
L156I	-0.0958	-0.948
L156R	1.06	1.1
L156T	0.139	0.0718
L156P	0.268	0.446
L156H	1.07	1.03
L156Y	1.07	0.941

Variant	scaled log2 fold change [1]	scaled log2 fold change [2]
C155E	-0.828	-0.236
C155H	-1.03	-0.48
C155K	-0.165	6.73e-05
C155W	-0.0475	0.246
C155Y	-0.378	-0.939
C155G	-0.0608	-0.601
C155M	0.338	0.969
C155Q	0.507	–
C155P	0.0631	0.21
C155T	-0.251	-0.435
C155R	-0.248	-1.26
C155F	-0.0473	-0.0932
C155N	-0.0685	–
C155S	0.114	-0.635
C155D	0.24	-1.76
C155I	0.0211	-0.117
C155L	0.0756	-0.359
C155A	-0.331	-0.584
C155V	-0.17	-0.185
